Test: yeast display, Sf9 membrane polyspecificity reagent, FACS + sequencing; frameworks hold sequencing errors
Method in brief: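 Galactose induction of a Saccharomyces cerevisiae BJ5465 synthetic nanobody display library ran 36–48 hours. The cells were then stained for 1 hour at 4 °C with 10% biotinylated, detergent-solubilized Sf9 membrane reagent, pulled down on streptavidin microbeads and FACS-sorted into low and high (top ~1%) gates on expression and reagent-binding fluorescence. Labels for polyreactivity follow the gate of origin.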

Row | Sequence | polyreactivity (PSR sort gate)
1 | QVQLVESGGGLVQAGGSLRLSCAASGSILSYYVMGWYRQAPGKERELVAAITSDGSKNYADSVKGRFTISRDNAKNTVYLQMNSLKPEDTAVYYCAAVIAWYYGVQDVYYLGLYDYWGQGTQVTVSS | low polyreactivity
2 | QVQLVESGGGLVQAGGSLRITCAASGSTYYHNVMGRYRPAPGKERELVARISSGGGSTSYADSVKGRFTISRDNAKNTVYLQMNSLKPEETAVYYCNKYYTKRGYFLPWYHYGSWGQGTQVTLSS | high polyreactivity
3 | QVQLVESGGGLVQAGGSLRLSCAASGSTFNGNVMGWYRQAPGKERELVAGISKSGGTTYYADSVKGRFTISRDNAKNTVYLQMNSLKPEDTAVYYCAARGRVRYYPQYDYWGQGTQVTVSS | high polyreactivity
4 | QVQLVESWGGLVQAGGSLRLRCAASGSTSLGYAMGWYRQAPGKERELVASISWTGGGKYYADSVKGRFTISRDNAKNTVYLQMNSLKPEDTAVYYCAADLTGYHPYIYGYWGQVTQVTVSS | low polyreactivity
5 | QVQLVESGGRLVQAGGSLRLTLAASGNTRGSYAMGWYRQAPGKEREFVATISKRGGSTYYADSVKGRFTISRDNAKNTVYLQMNSLKPEDTAVYYCNKDPYSIYRPGSGQGYAFNYWGQGTQVTVSS | high polyreactivity
6 | QVQLVESGGGLVQAGGSLRLSCAASGRTYRRNAMGWYRQAPGKERELVAAIRSDGSTYYADSVKGRFTISRDNAKNTVYLQMNRLKPEDTAVYYCNAVYVSSFTCHDYWGQGTQVTVSS | low polyreactivity
7 | QVQLVESGGGLVQAGGSLRLSCAASGSTFQPYAMGWYRQAPGKERELVAAISWSGVSTSYADSVKGRFTISRDNAKNTVYLQMNSLKPEETAVYYPFYEYYYWVQGTQVTVSS | low polyreactivity
8 | QGQLVESGGGLVQAGGSLRLSCAASGLTFKYYTMGWYRQAPGKEMELVAAINWSGASTYADSVKGRFTISRDNAKNTVYLQMNSLKPEDTAVYYCAADSPSWAPVREYDFWGQGTQVTVSS | low polyreactivity
9 | QVQLVESGGGLVQAGGSLRLSCAASGLTFGGNAMGWYRQAPGKERELVAAISWSDDTTDYADSVKGRFTISRDNAKNTVYVQMNSLKPEDTAVYYCAARLPFEHVDYWGQGTQVTVTS | low polyreactivity
10 | QVQLVESGGGLVQAGGSLRLSCAASGITFGYYAMGWYRQAPGKERENVAAITRRGGSTYYADSVKGRFTISRDNAKNTVYLQMNSLKPEDTAVYYCAADSYRYWFIEDNYWGQGTQVTVSS | high polyreactivity
11 | QVQLLESGAGLVQAGGSLRLSCADSGTFYGYAMGWYRQAPGKERELVAAITWSGGSTYYADSVKGRFTISRDNSKNTVYLQMISLKPEDTAVYYCAASLYSGYDSWGQGTQVTVSS | low polyreactivity
12 | QVQLVESGGGLVQAGGSLRLSCAASGSIFGFNAMGWYRQAPGKERELVAAINNGGSTNYADSVKGRFTISRDNAKNTVYLQMNSLKPEDTAVYYCAVGTLTYEGFRTYYYWGQGTQVTVSS | high polyreactivity
13 | QVQLVESGGCLVQAGGSLRLSCAASGFTLTGNAMGWYRQAPGKERELVADISNSGGTTNYADSVKGRFTISRDNAKNTVYLQMNSLKPDDSAVYYCAADVSYRNIGLEYWGQGTQVTVSS | high polyreactivity
14 | QVQLVESGGGLDLAGGSLRLSCAASGSTFWRYAMGWYCQAPGKERELVAAISYTGTSTYSADSVKGRFTISRDNAKNTVYLQMNSLKPEDTAVYYCAAVFVGLVTGYDYSWGQGTQVNVSS | low polyreactivity
15 | QVQLVESGGGLVQAGGSLRLSCAASGSTLDVYDMGWYRKAPGKEREFVATISFSVGSTDYADSVKGRFTISRDNAKNTVYLQMNSLKPEDTAVYYCAADVSEWSNQYFDSYLRMDYWGQGTQVTVSS | low polyreactivity
16 | QVQLVESGGGLVQAGGSLRLSCAASGRTFSRKAMRWYRQAPGKERELVASISRSGGSTYYADSVKGRFTISRDIAKNTVYLQMNSLKPEDTAVYYCAASYWHRRYDYWGQGTQVTVSS | high polyreactivity
17 | QVQLVESGGGLVQAGGSLRLSCAASGRTIYRYDMGWYRQSPGKERKFVAPISWSGGRTYYADSVKGRFTIARDNAKNTVYLQMNSLKPEDTAVYYCAAEYPWSVGYWRYGLDDYWGQGTQVSVSS | high polyreactivity
18 | QVQLVESGGGLVQAGGSLRLSCDASGRIFNYYAMGWYRQAPGKERELVAAITWNGGNTYYADSVKGRFTISRDNAKNTVYLQMNSLKPEDTAVYYCNAYPWYPGDYWGQGTQVTVSS | high polyreactivity
19 | QVQLVESGGGLVQAGGSLRLSCAASGSIFRFNAMGWSRQAPGKERELVARITSGGSTNYADSVKGRFTISRDNAKNTVYLQMNSLKPEDTAVYYCAAVYLLRGRRVTSYPYGYWGQGTQVTVSS | high polyreactivity
20 | QVQLVESGGGLVQAGGSLRLSCAASGSISSKNSMGWYRQAPGKEREFVAVISGTGGSTYYSDSVKGRFTISRDIAKNTVYLQMNSLKPEDTAVYYCAADFPWSTKSWHPDSGDSWGQGTQVTVSS | low polyreactivity
21 | QVQLVESGGGLVQAGGSLRLSCDASGSTFFANAMGWYRQAPGKERELVAAITIGNTNYADSVKGRFTISRDNAKYTVYLQMNSLKPEDTAVYYCNASHVSHYRARDYWGQGTQVTVSS | low polyreactivity
22 | QVQLVESGGGLVQAGGSLRLSCAASGSIFFEYAMGWYRQAPGKERELVASINRGGGSTYYADSVKGRFTISRDNAKNTVYLQMNSLIPEDTAVYYCAAQCKYRQSYLDYYWGQGTQVTVSS | low polyreactivity

Row | Sequence | polyreactivity (PSR sort gate)
23 | QVQLVESGGGLVQEGGSLRLSCAASGFTFDDYAMGWYRQAPGKERELVATITNSDSSTYYADSVKGRFTISRDNEKNTFYLQMNSLQPVDTAVYYCAADGRYAYGYNHWGHGTQVTVSS | low polyreactivity
24 | QVQLVESGGGLVQAGGSLRLSCAASGSIFSSYTMGWYRPAPGKERELLAAISSTGSTYYADSVKGRFTISRDNAKNTVYLQMNSLKPEDTAVYYCAARGWYWQQYKGHTRYDYWGQGTQVTVSS | high polyreactivity
25 | QVQLVESGGGLVQAGGSLRLSCAASGSTFYFNAMGWYRQAPGKERELVATISDNDGSTNYADSVKGRFTISRDNAKNTVYLLMISLKPEDTGVYYCNADWYYYYEEDDYWGQGTQVTVSS | low polyreactivity
26 | QVQLVESGAGLVQAGGSLRLSCAASGSTFEVYAMGWYRQAPGKVMELVADISHIGGSTYSADSVMGRFTISRDNAKNTVYLQLNSLKPEDTAVYYCNAYTVYAYDYWGQGTQVTVSS | low polyreactivity
27 | QVQLVESGGGLVQAGGSLRLSCAASGLIFYLYTMGWYRQAPGQERELVAAISRSGGSTYYADSVKGRFTISRDNAKNTVYVQMNSLKPEDPAVYYCAALRSRSTYNDYNYWGQGTQVTVSS | high polyreactivity
28 | QVQLVESGGGLVQAGGSLRLSCAASGRIFRYKAMGGYRQAPGKEREFVAAISSSGGSTFYADSVKGRFTISRDNAKNTVYLQMNSLIPEDTAAYYCAADDAGFWYYYYGRYVTFDYWGQGTQVTVSS | low polyreactivity
29 | QVQLVESGGGLVQAGGSLRLSCAASGLIFKSYLMGSYRQAPGKERELVAGITGSGGTTYYADSVKGRFTISRDNAKNTVYLQMNSLKPEDTAVYYCAARSRSRPKYDYWGQGTQVTVSS | high polyreactivity
30 | QVQHVESGGGLVQAGGSLRLSCAASGFNFAYNIMGWYRQAPGKERELVADISGTGSTNYADSVKGRFTISRDNAKNTVYLQMNSLKPEDTAVYYCATSGDRLVWGQGTQVTVSS | low polyreactivity
31 | QFQLVESGGGLVQAGGSLRLSCAASGSTFFVYDMGWYRQATGKEGELVAAISISDGGTYYADSVKGRFTISRDNAKNTVYLQMKSLKPEDTAVYYCAADYSERYFPGYDYWGQGTLVTVSS | low polyreactivity
32 | QVQLVESGGGLFQAGGSLSLRCAASGSIFEVNALGWDRQGPGKERELVAAISQRGTRTYYADSVKGRFTMSRDYAKNTVYLQMNILKPEDTAVYYCNRGGWRQYDSWGQGTQVTVST | high polyreactivity
33 | QVQLVESGGGLVQAGGSLRLSCAASGSILGVYAMGWYRQAPGKERELVAAISSGGRTYYADSVKGRFTISRDNAKNTVYLQMNSLKPEDTAVYYCNAVSGSFLKYSRYYWGQGTQVTVSS | high polyreactivity
34 | QVQLVESGGGLVQAGGSLRLSCAASGRIFTVYAMGWYRQAPGKERELVAAISSSGGSTYYADSLKGRFTISRDNAKNSVFLQMNSLKPEDTAVYYCAKPRTYDKDKYDYWGQCTQVTVSS | high polyreactivity
35 | QVQLVESGGVLVQAGGSLRLSCADSGRTFWYYAMGWYRQAPGKEREWVASISASGGSTFYADSVKGRFTISRDNAKNTVSLQMNSLKPEDTAVYYRAAKNAVWRRYEYWGQGTQVTVSS | high polyreactivity
36 | QVQLVESGGGLVQAGGSLRLSCAASGFISDDYAMGWYRQAPGKERELVAAISDSGVDTYYADSVKGRFTISRDNAKNTVYLLMNSLKPEDTAVYYCATLTYASNRYGYWGQGTHVTVSS | low polyreactivity
37 | QVQLVESGGGLDQAGGRLRLSCAASGSIFSIYAMGRYRQAPGKERELVAAISSGGSTYADSVKGRFTISRDNAKNTVYLQMNSLKPEDTAVYYCAADRRGYRGYDYWGQGTQVTVSS | low polyreactivity
38 | QVQLVESGGGLVQAGGSLRLSCAASGSTSRYALGWYIQAPGNERELVAAITRSGGTTYYADSVKGRFTISRDNAKNTVYLQMNSLIPEDTAVYYCATSDRQVKYDYWGQGTQVTVSS | low polyreactivity
39 | QVQLVESGGGLVQAGGSLRLSCAASGFIFYRYSMGWYRQAPGIERELVAAIRSSGGSTYYADSVKGRFSISRDNAKNTVYRHMNSLKPQDTAVYYCAKCFSSVLWNGIWPYDYWGQGTQVTVSS | low polyreactivity
40 | QVQLVESGGGLVQAGGSLRLSCADSGRIFASYAMGWYRQAPRKERELVAAISWRGGTTYYADSVKGRFTSSRDNAKNTVYLQMNSLKPEDTAVYYCATTSSLGSWGYDYWGQGTQVTVSS | high polyreactivity
41 | QVQLVESGGGLVQAGGSLRLSCAASGLTFGDYTMGWYRQAPGKERELVAAITWSGASTYYADSVKGRFTISRDNAKNTVYLQMNSLKPEDTAVYYCADERTPSYRAYDYWGQGTKVTVSS | low polyreactivity
42 | QVQLVESGGGLVQAGGSLRLSCAASGSTFYRYAMGWSRQAPGKERELVAAITWRGGSTYYADSVKGRFTISRDNAKNTLYLQMNSLKPEDTAVYYCAADSYYYRPYHYGYDYWGQGTQVTVSS | high polyreactivity
43 | QVQLVESVGGLVQAGGRLRLSCAASGITFEPYAMGWYRPAPGKEREFVADITWSGGSTYYADSVKGRFTISRDNAKNTVYLQMNSLKPEDTAVYYCAADGWTSYWSDYWGQGTQVTVSS | low polyreactivity

From the nanobody polyreactivity screen of Harvey et al. (2022)
